Mean fluorescence intensity data for one molecule are collected here from US20220411523A1.

Assay [1] deals with Human 4-1BB + Mouse 4-1BB domain1,2A,2B(aa24-86) (human; mouse). In words: FACS, transiently transfected Expi293 cells (cell A). A general note: Flow cytometry measures light scatter and fluorescence of single cells or particles in a stream.
For assay [2], the target named is Human 4-1BB + Mouse 4-1BB domain1,4B,NF(aa24-46,aa139-186) (human; mouse). In words: FACS, transiently transfected Expi293 cells (cell F).
Human 4-1BB + Mouse 4-1BB domain1,4B,NF(aa24-46,aa139-186) (human; mouse), sequence (chain, as listed by the source): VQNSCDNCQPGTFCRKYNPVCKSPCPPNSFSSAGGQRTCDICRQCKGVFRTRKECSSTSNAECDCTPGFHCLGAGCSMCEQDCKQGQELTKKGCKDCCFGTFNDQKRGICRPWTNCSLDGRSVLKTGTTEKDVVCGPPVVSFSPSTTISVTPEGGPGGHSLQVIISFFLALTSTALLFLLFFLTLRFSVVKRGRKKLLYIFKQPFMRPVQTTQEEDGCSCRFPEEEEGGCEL

Human 4-1BB + Mouse 4-1BB domain1,2A,2B(aa24-86) (human; mouse), sequence (chain, as listed by the source): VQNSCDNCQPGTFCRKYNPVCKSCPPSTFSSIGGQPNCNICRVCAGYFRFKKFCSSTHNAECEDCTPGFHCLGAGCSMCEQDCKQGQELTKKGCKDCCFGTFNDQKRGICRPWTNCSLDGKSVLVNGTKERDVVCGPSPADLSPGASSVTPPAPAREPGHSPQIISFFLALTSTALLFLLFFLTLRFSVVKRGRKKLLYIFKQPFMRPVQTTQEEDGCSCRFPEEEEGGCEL

B1: Hanke10F4 (antibody, human IgG4 S228P, kappa, V domains shown)
VH: QVQLQESGPGLVKPSETLSITCTVSGSSLTSYGVHWVRQPPGKGLEGLGVIWPGGSTNYNSALMSRLTISKDNSKSQVSLKMSSLTAADTAMYYCARVTGTWYFDVWGQGTTVTVSS
VL: DIQMTQSPSSLSASLGDRVTISCSASQGISNYLNWYQQKPDGTVKLLIYYTSTLHSGVPSRFSGSGSGTDFTLTISSLQPEDVATYYCQQYSKLPWTFGGGTKLEIKR
Regarding B1, the results for the Mean fluorescence intensity in assay [1] and in assay [2] were 948 and 1870, respectively.
